From PMC7229837, “Molecular architecture of the DNA-binding sites of the P-loop ATPases MipZ and ParA from Caulobacter crescentus” come the findings set out here.

The target of series [1] is T1, ParA WT (Caulobacter crescentus, UniProt B8GW31 1-267).
T1 sequence: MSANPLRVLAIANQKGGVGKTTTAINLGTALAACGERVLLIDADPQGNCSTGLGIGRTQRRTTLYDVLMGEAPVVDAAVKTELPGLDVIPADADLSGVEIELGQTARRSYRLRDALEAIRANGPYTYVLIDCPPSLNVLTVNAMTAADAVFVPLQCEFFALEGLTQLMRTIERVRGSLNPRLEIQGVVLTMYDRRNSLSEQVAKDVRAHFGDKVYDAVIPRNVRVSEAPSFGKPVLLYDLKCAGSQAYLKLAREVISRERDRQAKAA
Description: HDX-MS; 1 mM ATPgS; regions R1, R2, R4 protected; EMSA: 10 mM HEPES/NaOH pH 7.2, 150 mM NaCl, 10 mM MgCl2, 0.05% Tween 20, 0.46 mM ATPgS, room temp; BLI: 50 mM HEPES/NaOH pH 7.2, 50 mM NaCl, 5 mM MgCl2, 0.1 mM. Conditions: protein: recombinant; tags: C-terminal His6; chain copies: 2; blunt.

Series [2] deals with T2, MipZ D42A (Caulobacter crescentus, UniProt Q9A6C9 1-278, D42A).
T2 sequence: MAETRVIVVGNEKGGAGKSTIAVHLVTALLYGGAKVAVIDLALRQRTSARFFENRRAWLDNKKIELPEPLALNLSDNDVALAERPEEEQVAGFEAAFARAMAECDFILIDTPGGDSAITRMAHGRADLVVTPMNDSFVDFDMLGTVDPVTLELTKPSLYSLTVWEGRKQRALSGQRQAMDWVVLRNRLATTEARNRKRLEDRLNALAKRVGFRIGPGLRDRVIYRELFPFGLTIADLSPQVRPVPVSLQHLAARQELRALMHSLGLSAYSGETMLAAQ
As to the kind of experiment: HDX-MS; 1 mM ATPgS; regions R1, R3, R4 protected; EMSA: 10 mM HEPES/NaOH pH 7.2, 150 mM NaCl, 10 mM MgCl2, 0.05% Tween 20, 0.46 mM ATPgS, room temp; BLI: 50 mM HEPES/NaOH pH 7.2, 50 mM NaCl, 5 mM MgCl2, 0.1 mM. The conditions noted are these: protein: recombinant; tags: C-terminal His6 (pET21a); chain copies: 2; blunt. Background: Mobility shift assays separate free from complexed probe on a gel.

B1: ran14-up/ran14-lo 14 bp (dsDNA)
DNA 1: GCCGCCGCCGCCGC
DNA 2: GCGGCGGCGGCGGC
B1: the binding result in series [1] and in series [2] was “binds” throughout.
